Our source for the Kd and dH values is article PMC4673829, “Chemical basis for the recognition of trimethyllysine by epigenetic reader proteins” (Nature Communications, 2015).

Assay [1] has as its target JARID1A PHD3 domain (for ITC). The experiment in a line: ITC; 350–600 μM H3K4me3 or H3C4me3 peptide titrated to 25–40 μM protein (JMJD2A–H3C4me3: 3 mM peptide to 200 μM JMJD2A); 19 injections; Microcal Auto-iTC200; one set of sites model; 5–7 repeats.
The target of the next assay is T1, JMJD2A tudor domains.
T1 sequence (O75164 whole entry, species assumed, looked up): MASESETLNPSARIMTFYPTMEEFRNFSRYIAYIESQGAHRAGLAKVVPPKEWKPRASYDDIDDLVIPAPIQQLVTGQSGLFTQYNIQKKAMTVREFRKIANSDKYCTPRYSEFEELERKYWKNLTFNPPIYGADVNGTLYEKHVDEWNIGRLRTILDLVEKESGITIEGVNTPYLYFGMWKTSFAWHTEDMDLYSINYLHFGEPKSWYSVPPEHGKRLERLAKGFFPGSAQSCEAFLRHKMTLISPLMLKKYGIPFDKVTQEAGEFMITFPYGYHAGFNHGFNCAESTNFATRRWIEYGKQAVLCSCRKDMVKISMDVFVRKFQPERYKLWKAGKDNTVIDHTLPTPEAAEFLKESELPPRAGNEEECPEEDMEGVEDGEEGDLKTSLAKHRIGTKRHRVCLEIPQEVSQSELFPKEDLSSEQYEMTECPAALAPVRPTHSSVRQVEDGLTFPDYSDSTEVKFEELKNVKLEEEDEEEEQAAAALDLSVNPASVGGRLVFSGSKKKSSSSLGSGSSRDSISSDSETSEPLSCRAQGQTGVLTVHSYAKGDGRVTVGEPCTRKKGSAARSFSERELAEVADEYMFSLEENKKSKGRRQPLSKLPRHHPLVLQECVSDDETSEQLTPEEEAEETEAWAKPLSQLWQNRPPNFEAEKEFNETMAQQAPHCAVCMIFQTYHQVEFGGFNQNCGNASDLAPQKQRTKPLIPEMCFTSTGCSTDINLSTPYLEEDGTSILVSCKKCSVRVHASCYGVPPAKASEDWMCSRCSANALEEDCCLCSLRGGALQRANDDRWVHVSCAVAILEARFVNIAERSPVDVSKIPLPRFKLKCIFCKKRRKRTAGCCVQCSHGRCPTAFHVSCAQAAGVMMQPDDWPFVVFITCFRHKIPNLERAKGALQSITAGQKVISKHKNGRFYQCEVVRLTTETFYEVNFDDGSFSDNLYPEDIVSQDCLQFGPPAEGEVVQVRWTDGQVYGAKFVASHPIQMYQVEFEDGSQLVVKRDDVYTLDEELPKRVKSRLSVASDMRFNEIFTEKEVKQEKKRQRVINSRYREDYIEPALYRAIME
The description is as above.

Assay [2] has as its target SGF29 tandem tudor domain (for ITC). The assay is described as above.
Assay [3] concerns the target JARID1A PHD3 domain (for ITC). The assay can be described thus: ITC; H3G4 (5 mM) titrated to JARID1A (330 μM), H3G4 (3 mM) titrated to TAF3 (200 μM); 19 injections; Microcal Auto-iTC200; one set of sites model. In general terms: Isothermal titration calorimetry measures the heat released or taken up as one component is titrated into another.

Ends that are not written are not given here. Me3 = trimethyllysine (Kme3)

By Kd is commonly meant the constant that tells how readily two partners part at equilibrium. Higher therefore signals lower affinity.

Chain of SGF29 tandem tudor domain (for ITC) (Q96ES7 whole entry, the tested form may be a part): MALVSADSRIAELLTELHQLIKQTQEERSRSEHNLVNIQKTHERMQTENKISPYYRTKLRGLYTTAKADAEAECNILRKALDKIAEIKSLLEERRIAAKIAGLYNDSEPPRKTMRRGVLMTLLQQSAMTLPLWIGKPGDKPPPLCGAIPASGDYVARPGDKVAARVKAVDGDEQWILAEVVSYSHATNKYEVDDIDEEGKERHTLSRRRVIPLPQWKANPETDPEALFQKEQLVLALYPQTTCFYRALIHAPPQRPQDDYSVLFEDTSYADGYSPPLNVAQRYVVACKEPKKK

B1: 10-mer H3K4me3 histone peptide (peptide)
peptide: ARTK(Me3)QTARKS-OH
Consider B1, for which the values for the Kd (in assay [1]; with JMJD2A tudor domains; in assay [2]) were 94 nM, 940 nM and 1700 nM, respectively. Besides, the figures for the dH (in assay [1]; with JMJD2A tudor domains; in assay [2]) were -11 kcal/mol, -13.1 kcal/mol and -7.7 kcal/mol, respectively.

B2: 10-mer H3G4 histone peptide (peptide)
peptide: ARTGQTARKS-OH
In assay [3], B2 displayed a Kd of 88000 nM and a dH of -2.1 kcal/mol.
